Legend:
[1] = target: Ndc80-MIND-GFP co-complex (S. cerevisiae) (UniProt P40460); assay: single molecule TIRF microscopy (residence time on microtubules); as a1, with free Spc24/Spc25 dimer (wild type or mutant) added in trans: sixtyfold excess over Broccoli-GFP, tenfold excess over Ndc80-MIND-GFP
[2] = target: end-labeled Ndc80 complex Nuf2 S2C Spc25 S154C (cysteine-light, concurrently labeled with Cy3 and Alexa Fluor 647, for single molecule FRET) (S. cerevisiae) (UniProt P40460); assay: single molecule three-color TIRF co-localisation; end-labeled Ndc80 complex and GFP-MIND pre-incubated 1:10 for 15 min at room temperature, then tethered by anti-penta-His antibody to lipid-coated coverslips; co-localisation of GFP with Cy3 and Alexa Fluor 647
[3] = target: taxol-stabilized microtubules (bovine brain tubulin) (bovine) (UniProt Q6B856); assay: single molecule TIRF microscopy (residence time on microtubules); fluorescent complexes in solution on taxol-stabilized microtubules; standard BRB80 buffer; mean residence time, error by bootstrapping

Sequence of free Spc24/Spc25 dimer (Q04477 whole entry): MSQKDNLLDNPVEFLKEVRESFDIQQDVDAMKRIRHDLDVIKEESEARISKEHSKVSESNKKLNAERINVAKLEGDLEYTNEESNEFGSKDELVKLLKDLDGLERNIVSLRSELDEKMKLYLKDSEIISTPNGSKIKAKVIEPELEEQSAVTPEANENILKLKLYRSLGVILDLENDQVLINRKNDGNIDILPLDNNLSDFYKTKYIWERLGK
Sequence of free Spc24/Spc25 dimer (P40014 whole entry): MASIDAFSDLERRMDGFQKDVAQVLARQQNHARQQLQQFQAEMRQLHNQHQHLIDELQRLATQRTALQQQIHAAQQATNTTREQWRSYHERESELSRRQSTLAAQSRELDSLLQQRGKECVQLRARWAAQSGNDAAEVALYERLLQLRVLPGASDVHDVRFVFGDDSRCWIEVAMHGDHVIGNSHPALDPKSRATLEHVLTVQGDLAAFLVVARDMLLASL

Spc24/Spc25 V159D dimer (from UniProt Q04477 1-213; P40014 1-221) (complex)
mean residence time of the Ndc80-MIND-GFP co-complex on microtubules with a tenfold excess of the binder [1]: 4.2 s

MIND complex carrying an N-terminal FLAG tag on Nsl1 and a C-terminal GFP on Mtw1 (from UniProt P39731 1-289; Q12143 1-216; P40568 1-576)
percent of the end-labeled Ndc80 complexes in co-complex with MIND (tenfold excess of GFP-MIND) [2]: 33%

free Spc24/Spc25 dimer (from UniProt Q04477 1-213; P40014 1-221) (complex)
mean residence time of the Ndc80-MIND-GFP co-complex on microtubules with a tenfold excess of the binder [1]: 4.1 s

Ndc80-MIND-GFP co-complex (from UniProt P40460 1-691; P33895 1-451; Q04477 1-213; P40014 1-221; P39731 1-289; P40568 1-576; Q12143 1-216)
mean residence time on microtubules [3]: 9.8 s

— PMC6516834
